From patent US20070173444A1 (AFFYMAX, published 2007)
Bridge positions count the residues as written; N and C are the ends. Square brackets hold non-standard residues; d marks the D form. Ends that are not written are not given here. Ahx = NCCCCCC(=O)O

T1: native IL-5R a/β complex on TF-1 cells (human, UniProt Q01344 21-420; P32927 17-897)
T1 sequence (looked up) 1: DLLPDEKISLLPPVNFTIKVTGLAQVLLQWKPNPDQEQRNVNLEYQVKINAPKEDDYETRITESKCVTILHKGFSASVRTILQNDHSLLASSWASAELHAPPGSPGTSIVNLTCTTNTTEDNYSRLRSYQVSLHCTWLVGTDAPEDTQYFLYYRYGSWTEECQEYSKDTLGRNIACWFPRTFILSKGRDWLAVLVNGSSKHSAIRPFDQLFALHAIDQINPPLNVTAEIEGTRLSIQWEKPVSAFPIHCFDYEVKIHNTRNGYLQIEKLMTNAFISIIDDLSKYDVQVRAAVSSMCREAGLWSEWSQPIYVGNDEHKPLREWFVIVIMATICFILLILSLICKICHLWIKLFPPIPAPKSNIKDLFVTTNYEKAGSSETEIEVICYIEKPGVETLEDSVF
T1 sequence (looked up) 2: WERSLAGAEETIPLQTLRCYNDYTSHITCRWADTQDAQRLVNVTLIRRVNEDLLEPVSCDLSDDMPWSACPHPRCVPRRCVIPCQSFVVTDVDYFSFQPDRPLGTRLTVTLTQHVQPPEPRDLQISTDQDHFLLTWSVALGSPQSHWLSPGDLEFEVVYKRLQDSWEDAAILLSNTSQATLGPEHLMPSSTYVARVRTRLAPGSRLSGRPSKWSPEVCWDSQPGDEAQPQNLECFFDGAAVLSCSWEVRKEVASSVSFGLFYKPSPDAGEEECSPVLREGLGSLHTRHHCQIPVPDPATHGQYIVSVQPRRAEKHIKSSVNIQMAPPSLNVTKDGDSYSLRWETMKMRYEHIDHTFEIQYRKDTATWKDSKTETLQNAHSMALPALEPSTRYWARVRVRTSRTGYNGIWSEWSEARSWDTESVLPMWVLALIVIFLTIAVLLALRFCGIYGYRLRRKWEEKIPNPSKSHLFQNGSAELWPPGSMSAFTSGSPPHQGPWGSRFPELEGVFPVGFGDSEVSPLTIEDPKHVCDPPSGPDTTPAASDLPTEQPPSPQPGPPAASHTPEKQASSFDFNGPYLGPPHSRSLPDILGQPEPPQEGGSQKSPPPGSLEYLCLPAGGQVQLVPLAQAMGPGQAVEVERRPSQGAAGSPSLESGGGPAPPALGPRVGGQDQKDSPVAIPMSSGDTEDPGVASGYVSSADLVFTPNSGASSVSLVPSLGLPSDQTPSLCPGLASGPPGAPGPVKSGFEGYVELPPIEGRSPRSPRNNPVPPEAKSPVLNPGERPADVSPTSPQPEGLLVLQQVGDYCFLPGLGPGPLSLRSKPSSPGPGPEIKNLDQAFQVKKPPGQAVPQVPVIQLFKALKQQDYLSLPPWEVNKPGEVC

T2: IL-5RaECD (the extracellular domain (ECD) of the human IL-5 receptor a chain) (human, UniProt Q01344 21-342, extensively glycosylated)
T2 construct: extracellular domain; also called IL-5RαECD; soluble IL-5Ra
T2 sequence (Q01344 21-342, looked up): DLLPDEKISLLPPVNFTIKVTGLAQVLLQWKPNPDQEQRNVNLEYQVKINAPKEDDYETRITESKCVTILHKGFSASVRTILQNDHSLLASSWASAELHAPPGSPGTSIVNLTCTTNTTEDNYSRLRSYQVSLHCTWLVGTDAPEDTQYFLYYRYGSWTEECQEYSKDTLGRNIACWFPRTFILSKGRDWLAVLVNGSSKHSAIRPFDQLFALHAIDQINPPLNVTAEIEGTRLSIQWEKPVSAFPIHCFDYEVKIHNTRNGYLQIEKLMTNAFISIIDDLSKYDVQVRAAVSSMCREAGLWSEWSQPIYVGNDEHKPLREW


Tests used:
[1] = target: T1, native IL-5R a/β complex on TF-1 cells; assay: cell-based or functional assay
[2] = target: T2, IL-5RaECD (the extracellular domain …); assay: scintillation proximity competition assay, 20 pM [125I] IL-5, soluble IL-5Ra on beads; dimer of the printed monomer
Protocol: Binding affinities of synthetic peptides for IL-5Ra were measured in a scintillation proximity assay (SPA) using radio-iodinated IL-5. Streptavidin coated SPA beads (Amersham) were suspended in IL-5 binding buffer (phosphate buffered saline, 0.1% bovine serum albumin, 0.2% NaN3) at 2 mg beads/ml of buffer. Biotinylated mAb 179 was adsorbed onto the beads at a ratio of 2 ig Ab/mg beads by incubating the beads and antibody with agitation for at least 2 h. at 4. The beads were pelleted at 2500 rpm and resuspended at 2 mg/ml in binding buffer. Soluble IL-5Ra was then adsorbed onto the beads by diluting a solution of soluble receptor harvest 1:500 into the bead suspension and incubating with agitation for 2 hr at 4. The beads were again pelleted at 2500 rpm and resuspended at 2 mg/ml in binding buffer. Competition binding assays were carried out in 100p1 reactions in white polystyrene microtiter plates. These reactions contained 0.05 mg of receptor coated SPA beads, various concentrations of test peptide diluted in binding buffer, and 20 pM [₁₂₅I] IL-5 (Amersham). The plates were incubated at room temperature for 1 hour with agitation, then centrifuged for 5 min at 1500 rpm followed by scintillation counting on a Topcount instrument (Packard). Total binding was defined by the amount of [₁₂₅I] IL-5 bound in the absence of any competitor. Non-specific binding was defined by the amount of [₁₂₅I] IL-5 bound in the presence of 30 nM IL-5. Peptide binding data was analyzed to determine the peptide concentration required to reduce specific [₁₂₅I] IL-5 binding by 50% (IC₅₀). In each instance, the dimer has both intramolecular and intermolecular disulfide linkages as shown generically below: […]

[3] = target: T2, IL-5RaECD (the extracellular domain …); assay: competition with [125I] IL-5 for binding to IL-5Ra ECD; peptide assayed immediately after dissolving
Protocol: (§1) Binding affinities of synthetic peptides for IL-5Ra were measured in a competition binding assay using radio-iodinated IL-5. Immulon 4 (Dynatech) microtiter wells were coated with streptavidin (Sigma) by incubating 100 ul of a 50 ug/ml solution in PBS for 30 min. at 37. The wells were blocked with 200 ul of 1% BSA in PBS for 15 min. at 37, followed by 100 III of biotinylated monoclonal antibody, designated mAb 179, at 5 u. g/ml in PBS. Soluble IL-5Ra was then immobilized in the wells by incubating 100 µl of a solution of soluble receptor harvest diluted 1: 5000 in PBS/0.1% BSA for 1 hr. at 4. After washing away unbound receptor, 50 ul of various concentrations of test peptide diluted in PBS/0.1% BSA were added to the wells, followed by 50 µl of a fixed concentration of [₁₂₅I] IL-5 (Amersham). The binding reactions were incubated at 4 C for 2 hr, then washed with PBS to remove unbound [₁₂₅I] IL-5. Bound [₁₂₅I] IL-5 was determined by gamma counting.
(§2) Total binding was defined by the amount of [₁₂₅I] IL-5 bound in the absence of any competitor. Non-specific binding was defined by the amount of [₁₂₅I] IL-5 bound in the presence of 30 nM IL-5. Peptide binding data was analyzed to determine the peptide concentration required to reduce specific [₁₂₅I]

[4] = target: T2, IL-5RaECD (the extracellular domain …); assay: competition with [125I] IL-5 for binding to IL-5Ra ECD; peptide after 10 days (disulfide-linked dimer)
Protocol: as §1, §2

Row | Binder | Microphysiometer pIC50 (block of TF-1 cell response to IL-5) [1] | SPA pIC50 [2] | also measured
1 | Ac-EGYVCVEWARCPTCR-NH2 (disulfide (positions not given here); also: dimer, intramolecular and intermolecular disulfides, places not given here) [dimer of (Ac)-EGYVCVEWARCPTCR-(NH2)] | 9.1 negative log of the molar IC50 | – | –
2 | Ac-EGYVCVEWARCPTCK-NH2 (disulfide (positions not given here); also: dimer, intramolecular and intermolecular disulfides, places not given here) [dimer of (Ac)-EGYVCVEWARCPTCK-(NH2)] | 8.4 negative log of the molar IC50 | – | –
3 | H-EGYVCVEFARCPTCR-OH (disulfide (positions not given here); also: dimer, intramolecular and intermolecular disulfides, places not given here) [dimer of (H)-EGYVCVEFARCPTCR-(OH)] | – | 6.8 negative log of the molar IC50 | –
4 | H-EGYVCVEWARCPTCR-OH (disulfide (positions not given here); also: dimer, intramolecular and intermolecular disulfide linkages, places not given here) [dimer of (H)-EGYVCVEWARCPTCR-(OH)] | 9.6 negative log of the molar IC50 | 8.4 negative log of the molar IC50 | –
5 | H-GYVCVEWARCPTCR-OH (disulfide (positions not given here); also: dimer, intramolecular and intermolecular disulfide linkages, places not given here) [dimer of (H)-GYVCVEWARCPTCR-(OH)] | 8.4 negative log of the molar IC50 | 8.2 negative log of the molar IC50 | –
6 | TGGGDGYVCVEWARCPTCK (three Cys in free sulfhydryl form, T0005 prints 32-50) [AF17362 (three cysteine residues in the free sulfhydryl form)] | – | – | IC50 [3]: 120 nM
7 | TGGGDGYVCVEWARCPTCK (disulfide 15-18; also: dimer, interchain disulfide between Cys9 of each chain, Formed by air oxidation in 50 mM Tris pH 7.8; said to be indistinguishable from AF18748; also called AF17362 after 10 days at room temperature; spontaneously formed disulfide-linked dimer) [dimeric form of AF17362] | – | – | IC50 [4]: 0.55 nM
8 | H-EGYVCVEFARCPTCR-NH2 (disulfide (positions not given here); also: dimer, intramolecular and intermolecular disulfides, places not given here) [dimer of (H)-EGYVCVEFARCPTCR-(NH2)] | – | 6.4 negative log of the molar IC50 | –
9 | H-EGYVCVEWARCPTCG-NH2 (disulfide (positions not given here); also: dimer, intramolecular and intermolecular disulfide linkages, places not given here) [dimer of (H)-EGYVCVEWARCPTCG-(NH2)] | 9.1 negative log of the molar IC50 | – | –
10 | H-GYVCVEFARCPTCG-NH2 (disulfide (positions not given here); also: dimer, intramolecular and intermolecular disulfide linkages, places not given here) [dimer of (H)-GYVCVEFARCPTCG-(NH2)] | – | 6.1 negative log of the molar IC50 | –
11 | H-EGYVCVEWARCPTCK-OH (disulfide (positions not given here); also: dimer, intramolecular and intermolecular disulfide linkages, places not given here) [dimer of (H)-EGYVCVEWARCPTCK-(OH)] | 9.2 negative log of the molar IC50 | 8.7 negative log of the molar IC50 | –
12 | Ac-EGYVCVEWAACPTCR-NH2 (disulfide (positions not given here); also: dimer, intramolecular and intermolecular disulfides, places not given here) [dimer of (Ac)-EGYVCVEWAACPTCR-(NH2)] | 6.9 negative log of the molar IC50 | – | –
13 | H-EGYVCVEFARCPTCG-NH2 (disulfide (positions not given here); also: dimer, intramolecular and intermolecular disulfides, places not given here) [dimer of (H)-EGYVCVEFARCPTCG-(NH2)] | – | 6.6 negative log of the molar IC50 | –
14 | H-EGYVCVEWARCPTCR-NH2 (disulfide (positions not given here); also: dimer, intramolecular and intermolecular disulfide linkages, places not given here) [dimer of (H)-EGYVCVEWARCPTCR-(NH2)] | 9.1 negative log of the molar IC50 | 8.1 negative log of the molar IC50 | –
15 | [Ahx]EGYVCVEWARCPTCR-NH2 (disulfide (positions not given here); also: dimer, intramolecular and intermolecular disulfides, places not given here) [dimer of (Ahx)-EGYVCVEWARCPTCR-(NH2)] | 9 negative log of the molar IC50 | – | –
